Laboratory results: PMC7765622, “The Cardioprotective PKA-Mediated Hsp20 Phosphorylation Modulates Protein Associations Regulating Cytoskeletal Dynamics” (International Journal of Molecular Sciences, 2020)

T1: GST-CFL2 (amino acids 1-166), non-phosphorylated (Homo sapiens (Human), UniProt Q9Y281)
T1 chain: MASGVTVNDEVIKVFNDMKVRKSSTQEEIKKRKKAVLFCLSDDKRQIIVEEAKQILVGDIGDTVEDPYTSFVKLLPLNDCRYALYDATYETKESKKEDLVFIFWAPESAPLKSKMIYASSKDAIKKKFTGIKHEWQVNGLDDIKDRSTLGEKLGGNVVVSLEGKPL

T2: MBP-14-3-3 (amino acids 1-247), full length 14-3-3 gamma (human, UniProt P61981 1-247)
T2 construct: 14-3-3 gamma, human, amino acids 1-247, cloned by RT-PCR on human muscle cDNA into pMALc2x; also called in vitro expressed 14-3-3; source: recombinant, expression as previously described [58]
T2 sequence (looked up): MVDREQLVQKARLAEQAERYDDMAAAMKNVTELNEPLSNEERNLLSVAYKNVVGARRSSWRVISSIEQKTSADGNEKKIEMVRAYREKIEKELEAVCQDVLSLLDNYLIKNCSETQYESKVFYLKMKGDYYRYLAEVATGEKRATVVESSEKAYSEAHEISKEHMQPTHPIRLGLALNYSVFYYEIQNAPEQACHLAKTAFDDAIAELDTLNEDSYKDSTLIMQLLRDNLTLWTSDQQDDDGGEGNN

T3: GST-CFL2 (amino acids 1-55) (Homo sapiens (Human), UniProt Q9Y281)
T3 chain: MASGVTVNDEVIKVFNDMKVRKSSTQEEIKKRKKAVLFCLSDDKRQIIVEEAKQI

B1: GST-Hsp20 (amino acids 1-160), wild type, phosphorylated in vitro by PKA at Ser16 (natural protein, human, UniProt O14558 1-160, looked up)
chain: MEIPVPVQPSWLRRASAPLPGLSAPGRLFDQRFGEGLLEAELAALCPTTLAPYYLRAPSVALPVAQVPTDPGHFSVLLDVKHFSPEEIAVKVVGEHVEVHARHEERPDEHGFVAREFHRRYRLPPGVDPAAVTSALSPEGVLSIQAAPASAQAPPPAAAK
modifications: phosphoserine at 16 (PKA in vitro)
notes: Hsp20 (HspB6), amino acids 1-160, wild type; construct previously reported [16,53,57]; Same construct as m7, after PKA treatment; also called phosphorylated GST-Hsp20; GST-p-Hsp20; source: recombinant, purified on Glutathione Sepharose 4B; phosphorylated in vitro with PKA catalytic subunit (New England Biolabs), 30 °C, 1 h

Assays:
[1] = target: B1; assay: far-Western, overlay or dot blot; purified GST fusion proteins separated by SDS-PAGE and transferred to nitrocellulose; membranes incubated with MBP-14-3-3 fusion protein (or MBP as control); detection with anti-MBP; conditions: both partners purified
[2] = target: T1, GST-CFL2 (amino acids 1-166), …; assay: blot overlay
[3] = target: T2, MBP-14-3-3 (amino acids 1-247), full …; assay: pull-down; same samples as a4: eluted GST-Hsp20 proteins (PKA-treated or not) bound to MBP-14-3-3 on amylose resin, in the presence of myc-CFL2 HEK 293 lysate; blot with phospho-Hsp20 or GST antibody; conditions: both partners purified
[4] = target: T3, GST-CFL2 (amino acids 1-55); assay: blot overlay

| Binder | binding result [2] | binding result [3] | other results |
| --- | --- | --- | --- |
| MBP-14-3-3 (amino acids 115-247) (domain or fragment, human, UniProt P61981 115-247, looked up, 14-3-3 gamma, human, amino acids 115-247, in pMALc2x; also called MBP-14-3-3 C-terminal deletion construct; C-terminal fragment of 14-3-3; source: recombinant, expression as previously described [58]) TQYESKVFYLKMKGDYYRYLAEVATGEKRATVVESSEKAYSEAHEISKEHMQPTHPIRLGLALNYSVFYYEIQNAPEQACHLAKTAFDDAIAELDTLNEDSYKDSTLIMQLLRDNLTLWTSDQQDDDGGEGNN |  |  | binding result [1]: binds |
| MBP-14-3-3 (amino acids 1-120) (protein) MVDREQLVQKARLAEQAERYDDMAAAMKNVTELNEPLSNEERNLLSVAYKNVVGARRSSWRVISSIEQKTSADGNEKKIEMVRAYREKIEKELEAVCQDVLSLLDNYLIKNCSETQYESK | binds |  |  |
| B1 |  | binds |  |
| GST-Hsp20-S16D (natural protein, human, UniProt O14558 1-160, looked up, Hsp20 (HspB6), amino acids 1-160, made by PCR mutagenesis on the WT Hsp20 GST-tagged plasmid; Phosphomimetic at Ser16; also called GST-p-Hsp20-S16D (after PKA treatment); source: recombinant, purified (Glutathione Sepharose 4B), eluted; used untreated or PKA-treated) MEIPVPVQPSWLRRADAPLPGLSAPGRLFDQRFGEGLLEAELAALCPTTLAPYYLRAPSVALPVAQVPTDPGHFSVLLDVKHFSPEEIAVKVVGEHVEVHARHEERPDEHGFVAREFHRRYRLPPGVDPAAVTSALSPEGVLSIQAAPASAQAPPPAAAK |  | binds |  |
| MBP-14-3-3 (amino acids 1-247), full length 14-3-3 gamma (protein) MVDREQLVQKARLAEQAERYDDMAAAMKNVTELNEPLSNEERNLLSVAYKNVVGARRSSWRVISSIEQKTSADGNEKKIEMVRAYREKIEKELEAVCQDVLSLLDNYLIKNCSETQYESKVFYLKMKGDYYRYLAEVATGEKRATVVESSEKAYSEAHEISKEHMQPTHPIRLGLALNYSVFYYEIQNAPEQACHLAKTAFDDAIAELDTLNEDSYKDSTLIMQLLRDNLTLWTSDQQDDDGGEGNN | binds |  | binding result [4]: binds |
